Consider one molecule from patent publication US20050089937A1 (H LUNDBECK A S, published 2005).

No end group written: not given here. Where only a bound is given, the exact number is not on record here.

The target in test [1] is T1, human neuropeptide FF receptor (NPFF1) (human, UniProt Q9GZQ6 1-430). The experiment in a line: cell-based or functional assay.
Test [2] deals with T2, human NPFF2b (hNPFF2) receptor (human, UniProt Q9Y5X5 103-522). The experiment in a line: cell-based or functional assay.
Test [3] has as its target T3, rat neuropeptide FF receptor (NPFF2) (rat, UniProt Q9EQD2 1-417).
T3 construct: Full-length cloned receptor; Also the native receptor in rat brain sections (autoradiography); also called rat NPFF2
Kind of test: competition with [125I]D-Tyr-NPFF; rat NPFF2 against rat NPFF1. The source says: (§1) Additional pharmacological evaluation was done using 293 human embryonic kidney cells (HEK-293 cells) transiently expressing the genes encoding the human NPFF1, NPFF2, and rat NPFF1 receptors, as well as Cos-7 cells expressing the rat NPFF2 receptors.

In test [4] the target is T3, rat neuropeptide FF receptor (NPFF2). Kind of test: competition with [125I]D-Tyr-NPFF, cloned receptor (head: HEK-293; text: Cos-7).
Text: as §1

The target of test [5] is rat spinal cord membrane receptor. Kind of test: competition with [125I]D-Tyr-NPFF, rat spinal cord membranes.
In test [6] the target is T2, human NPFF2b (hNPFF2) receptor. The experiment in a line: competition with [125I]D-Tyr-NPFF; human NPFF2 against human NPFF1.
Text: as §1

The target in test [7] is T4, rat neuropeptide FF receptor (NPFF1) (rat, UniProt Q9EP86 1-432). The experiment in a line: competition with [125I]D-Tyr-NPFF, HEK-293 cells with the cloned receptor.
Text: as §1

In test [8] the target is T1, human neuropeptide FF receptor (NPFF1). Described as above.
Text: as §1

For test [9], the target named is T2, human NPFF2b (hNPFF2) receptor. The test is described as above.
Text: as §1

The target of test [10] is T4, rat neuropeptide FF receptor (NPFF1). The experiment in a line: competition with [125I]D-Tyr-NPFF, membranes of COS-7 cells with rat NPFF1. From the text: Cos-7 cells transiently expressing the gene encoding the novel rat NPFF1 receptor were used for pharmacological evaluation.

T2 sequence (Q9Y5X5 103-522): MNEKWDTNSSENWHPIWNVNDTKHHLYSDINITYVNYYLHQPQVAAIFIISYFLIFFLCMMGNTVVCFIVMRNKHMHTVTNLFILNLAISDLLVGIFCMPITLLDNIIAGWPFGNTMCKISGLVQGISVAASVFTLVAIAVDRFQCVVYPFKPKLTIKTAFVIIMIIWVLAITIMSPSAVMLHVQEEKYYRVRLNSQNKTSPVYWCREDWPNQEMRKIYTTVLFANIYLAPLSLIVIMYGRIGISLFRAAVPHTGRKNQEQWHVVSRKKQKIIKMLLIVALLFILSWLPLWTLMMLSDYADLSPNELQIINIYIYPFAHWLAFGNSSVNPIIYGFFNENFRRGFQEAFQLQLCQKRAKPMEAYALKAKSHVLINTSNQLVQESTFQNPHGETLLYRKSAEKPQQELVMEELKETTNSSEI
T1 sequence (Q9GZQ6 whole entry): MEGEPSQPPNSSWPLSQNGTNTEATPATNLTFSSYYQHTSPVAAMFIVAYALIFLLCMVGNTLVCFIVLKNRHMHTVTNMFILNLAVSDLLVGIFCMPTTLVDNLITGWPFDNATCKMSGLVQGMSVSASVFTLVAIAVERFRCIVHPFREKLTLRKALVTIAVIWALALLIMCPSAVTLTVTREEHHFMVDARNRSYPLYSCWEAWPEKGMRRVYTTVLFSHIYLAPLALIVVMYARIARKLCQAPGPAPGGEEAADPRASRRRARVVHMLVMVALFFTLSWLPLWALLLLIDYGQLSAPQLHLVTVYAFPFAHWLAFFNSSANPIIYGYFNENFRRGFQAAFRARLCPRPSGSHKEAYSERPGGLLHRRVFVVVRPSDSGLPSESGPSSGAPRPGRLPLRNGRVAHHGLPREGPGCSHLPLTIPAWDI
T3 sequence (Q9EQD2 whole entry): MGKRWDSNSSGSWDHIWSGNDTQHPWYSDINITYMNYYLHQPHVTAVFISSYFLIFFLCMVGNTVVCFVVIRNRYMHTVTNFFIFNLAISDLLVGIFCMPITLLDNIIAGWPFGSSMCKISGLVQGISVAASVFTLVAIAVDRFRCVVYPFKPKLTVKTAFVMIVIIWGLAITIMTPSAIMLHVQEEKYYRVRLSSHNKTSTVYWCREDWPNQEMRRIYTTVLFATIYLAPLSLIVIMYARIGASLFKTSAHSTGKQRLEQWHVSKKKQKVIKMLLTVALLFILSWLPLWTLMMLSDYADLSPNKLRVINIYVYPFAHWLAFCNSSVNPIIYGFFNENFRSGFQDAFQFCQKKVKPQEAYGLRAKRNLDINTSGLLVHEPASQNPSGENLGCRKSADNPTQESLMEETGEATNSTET
T4 sequence (Q9EP86 whole entry): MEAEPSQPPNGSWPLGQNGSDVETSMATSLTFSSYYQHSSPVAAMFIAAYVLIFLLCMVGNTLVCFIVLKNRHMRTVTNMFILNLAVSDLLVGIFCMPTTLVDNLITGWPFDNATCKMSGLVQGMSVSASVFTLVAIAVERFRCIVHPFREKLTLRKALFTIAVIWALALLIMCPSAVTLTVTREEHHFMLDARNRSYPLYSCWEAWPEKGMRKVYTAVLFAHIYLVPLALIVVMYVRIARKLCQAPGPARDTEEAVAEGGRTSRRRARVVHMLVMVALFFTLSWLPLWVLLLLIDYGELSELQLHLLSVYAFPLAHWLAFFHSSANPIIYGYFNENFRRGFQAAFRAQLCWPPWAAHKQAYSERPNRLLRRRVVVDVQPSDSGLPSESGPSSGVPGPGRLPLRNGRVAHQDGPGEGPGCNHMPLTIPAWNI

B1: Frog pancreatic polypeptide (frog PP) (Rana Temporaria) (peptide)
peptide: APSEPHHPGDQATQDQLAQYYSDLYQYITFVTRPRF
modifications: not fully specified; ends and bridges not checked
notes: also called fPP
In the case of B1, the “% of NPPF Response, intracellular calcium mobilization” value in test [1] was 0 % of NPPF Response; in test [2] it was 78 % of NPPF Response. Besides, the results for the “pEC50, intracellular calcium mobilization” value in [1] and in test [2] were less than 5 and 6.7, respectively. Moreover, the entries for the “fold greater affinity than for the NPFF1 receptor” value in test [3] and in test [6] were 31 fold and 77 fold, respectively. For the same molecule, the negative-log Ki (pKi) is 7.3 in [4]; 9.12 in test [5]; 5.4 in test [7]; 5.9 in test [8]; 7.4 in test [9]; 5.5 in test [10].
